Data from article doi:10.1101/2025.08.03.668247, “The structure of Egalitarian in complex with the K10 mRNA localization signal reveals a modular binding surface required for function”.

Legend:
[1] = target: T1, GST-Egl512-819 (Drosophila melanogaster, UniProt Q9W1K4 512-819); experiment: competition; vs FAM-K10 TLS; FA: 20 mM HEPES-NaOH pH 7.5, 100 mM NaCl, 10% glycerol, 20 C, 10 nM FAM-RNA; competition: 150 nM Egl512-819 + 10 nM FAM-K10 TLS, same buffer; details: protein: recombinant, tags: N-terminal GST (TEV site)
T1 sequence: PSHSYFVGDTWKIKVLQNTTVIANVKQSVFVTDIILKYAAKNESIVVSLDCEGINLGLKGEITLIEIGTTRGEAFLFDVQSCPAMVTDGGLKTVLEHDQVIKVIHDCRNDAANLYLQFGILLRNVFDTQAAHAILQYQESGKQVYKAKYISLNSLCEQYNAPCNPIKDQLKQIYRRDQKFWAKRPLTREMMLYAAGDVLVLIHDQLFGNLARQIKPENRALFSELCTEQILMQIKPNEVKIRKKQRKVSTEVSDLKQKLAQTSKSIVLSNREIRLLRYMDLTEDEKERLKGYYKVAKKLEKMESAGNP

[2] = target: T1, GST-Egl512-819; experiment: fluorescence anisotropy; FA: 20 mM HEPES-NaOH pH 7.5, 100 mM NaCl, 10% glycerol, 20 C, 10 nM FAM-RNA; competition: 150 nM Egl512-819 + 10 nM FAM-K10 TLS, same buffer; details: protein: recombinant, tags: N-terminal GST (TEV site)
[3] = target: T1, GST-Egl512-819; experiment: fluorescence anisotropy; listed as K10-10nt; FA: 20 mM HEPES-NaOH pH 7.5, 100 mM NaCl, 10% glycerol, 20 C, 10 nM FAM-RNA; competition: 150 nM Egl512-819 + 10 nM FAM-K10 TLS, same buffer; details: protein: recombinant; tags: N-terminal GST (TEV site); label: 5'-FAM in direct assay; hairpin, 3' overhang 10 nt
[4] = target: T1, GST-Egl512-819; experiment: competition; vs FAM-K10 TLS; none at 40,000-fold excess; FA: 20 mM HEPES-NaOH pH 7.5, 100 mM NaCl, 10% glycerol, 20 C, 10 nM FAM-RNA; competition: 150 nM Egl512-819 + 10 nM FAM-K10 TLS, same buffer; details: protein: recombinant; tags: N-terminal GST (TEV site)
[5] = label: 5'-FAM in direct assay, hairpin

B1: bcd_VbL (structured_RNA)
RNA: GGGCCCAAAAUGAAAAAUGUUUCUCUUGGGCGUAAUCUCAUACAAUGAUUACCCUUAAAGAUCGAACAUUUAAACAAUAAUAUUUGGG
[1]; [5]
  IC50: 31 ± 5 nM
[2]; [5]
  Kd: 123 ± 13 nM

B2: bcd_VbS (structured_RNA)
RNA: AAAUGUUUCUCUUGGGCGUAAUCUCAUACAAUGAUUACCCUUAAAGAUCGAACAUUU
[2]; label: 5'-FAM, hairpin
  Kd: 158 ± 8 nM

B3: K10-flank (K10-10nt) (structured_RNA)
RNA: CUUGAUUGUAUUUUUAAAUUAAUUCUUAAAAACUACAAAUUAAGAUCACUCUGU
[3]
  Kd: 92 ± 13 nM
[1]; label: 5'-FAM in direct assay, hairpin, 3' overhang 10 nt
  IC50: 53 ± 2 nM

## CUUGAUUGUAUUUUUAAAUUAAUUCUUAAAAAUACAAUUAAG (structured_RNA) [K10-Delta b1b2]
[2]; [5]
  Kd: 172 ± 18 nM

## GAAUUAAACAUCAAAAAUUCUUAAUUAAAUUUUUAUGUUAGUUC (structured_RNA) [K10-as]
[2]; [5]
  Kd: 102 ± 6 nM

B4: dsRNA (dsRNA)
RNA 1: UGAGUGCCAGAAGCUGCCUC
RNA 2: GAGGCAGCUUCUGGCACUCA
[2]; blunt
  Kd: 192 ± 7 nM

## UUUUUUUUUUUUUUUUUUUU (ssRNA) [ssRNA (U20)]
[2]; label: 5'-FAM
  Kd: 175 ± 3 nM

## AUAUAUAUAUAUAUAUAUAU (ssRNA) [ssRNA (AU20)]
[2]; label: 5'-FAM
  Kd: 137 ± 8 nM

## CUUGAUUGUAUUUUUAAAUUAAUUCUUAAAAACUACAAAUUAAG (structured_RNA) [K10 TLS (unlabeled)]
[1]; hairpin with two bulges
  IC50: 53 ± 4 nM

## ACAUGAGGAUUACCCAUGU (structured_RNA) [MS2 stem loop]
[1]; hairpin
  IC50: 142 ± 13 nM

## AGGCAGTTTCTGGTACTCAG (ssDNA) [ssDNA]
[4]
  binding result: no binding

B5: dsDNA (dsDNA)
DNA 1: AGGCAGTTTCTGGTACTCAG
DNA 2: CTGAGTACCAGAAACTGCCT
[1]; blunt
  IC50: 8890 ± 933 nM

B6: ARF1 dsRNA (dsRNA)
RNA 1: UGAGUGCCAGAAGCUGCCUC
RNA 2: GAGGCAGUUUCUGGUACUCA
[1]; blunt, with G-U wobbles
  IC50: 102 ± 14 nM

## GGCUUGAUUGUAUUUUUAAAUUAAUUCUUAAAAACUACAAAUUAAGCC (structured_RNA) [K10-2GC]
[1]; hairpin with two bulges
  IC50: 57 ± 6 nM

## AUUGAUUGUAUUUUUAAAUUAAUUCUUAAAAACUACAAAUUAAU (structured_RNA) [K10-AU]
[1]; hairpin
  IC50: 67 ± 4 nM

## CUUGAUUGUACUUUUUAAAUUAAUUCUUAAAAAUACAAAUUAAG (structured_RNA) [K10-b1as]
[1]; hairpin
  IC50: 63 ± 1 nM

## AUUGAUUGUACUUUUUAAAUUAAUUCUUAAAAAUACAAAUUAAU (structured_RNA) [K10-b1as-AU]
[1]; hairpin
  IC50: 87 ± 8 nM
